In patent US20160272693A1 (ZEALAND PHARMA A S, published 2016):
*1 amine or outer side, *2 acyl side, *3 side chain or, on linkers, in order; H or OH if unused. Bridges are numbered along the chain shown (N, C = ends). [ ]: non-standard residue; d: D form. The star is where a group is joined. C20 diacid = O=C(O)CCCCCCCCCCCCCCCCCCC(=O)*; γGlu = O=C(O)[C@H](CCC(=O)[*:2])N[*:1]; Hyp = O=C(O)[C@@H]1C[C@@H](O)CN1; NMeI = CC[C@H](C)[C@H](NC)C(=O)O; Aad = N[C@@H](CCCC(=O)O)C(=O)O; Sar = CNCC(=O)O

T1: human amylin receptor 3 (hAMYR3), hCTR2 co-expressed with human receptor activity modifying protein 3 (hRAMP3) (human, UniProt P30988 25-474; O60896 24-148)
T1 sequence (looked up) 1: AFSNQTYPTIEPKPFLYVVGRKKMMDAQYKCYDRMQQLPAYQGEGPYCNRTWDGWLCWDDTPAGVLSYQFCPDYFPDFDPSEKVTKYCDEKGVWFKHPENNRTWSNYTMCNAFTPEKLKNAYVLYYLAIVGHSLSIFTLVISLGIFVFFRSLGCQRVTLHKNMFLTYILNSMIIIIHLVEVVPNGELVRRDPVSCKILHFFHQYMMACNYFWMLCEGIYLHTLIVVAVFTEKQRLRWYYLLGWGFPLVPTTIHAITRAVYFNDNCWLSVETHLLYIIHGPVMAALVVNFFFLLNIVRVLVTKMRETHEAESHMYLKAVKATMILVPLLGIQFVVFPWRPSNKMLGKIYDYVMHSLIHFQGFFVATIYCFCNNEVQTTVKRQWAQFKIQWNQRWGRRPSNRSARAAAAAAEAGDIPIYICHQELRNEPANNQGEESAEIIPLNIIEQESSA
T1 sequence (looked up) 2: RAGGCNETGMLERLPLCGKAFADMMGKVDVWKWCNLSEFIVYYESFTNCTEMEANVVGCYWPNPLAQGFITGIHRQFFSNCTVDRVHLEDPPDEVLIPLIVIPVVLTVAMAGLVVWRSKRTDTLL

B1: [19CD]-isoGlu-R-C( )-NTAT-C( )-ATQRLAHFLQRSSF-Gly(Me)-A-Ile(Me)-LSSTEVGSGT-Hyp-NH2 (Compd. 71) (peptide)
peptide: {C20 diacid}-[γGlu]RCNTATCATQRLAHFLQRSSF[Sar]A[NMeI]LSSTEVGSGT[Hyp]-NH2
modifications: disulfide 3-8
SMILES: CC[C@H](C)[C@@H](C(=O)N[C@@H](CC(C)C)C(=O)N[C@@H](CO)C(=O)N[C@@H](CO)C(=O)N[C@H](C(=O)N[C@@H](CCC(=O)O)C(=O)N[C@H](C(=O)NCC(=O)N[C@@H](CO)C(=O)NCC(=O)N[C@H](C(=O)N1C[C@H](O)C[C@H]1C(N)=O)[C@@H](C)O)C(C)C)[C@@H](C)O)N(C)C(=O)[C@H](C)NC(=O)CN(C)C(=O)[C@H](Cc1ccccc1)NC(=O)[C@H](CO)NC(=O)[C@H](CO)NC(=O)[C@H](CCCNC(=N)N)NC(=O)[C@H](CCC(N)=O)NC(=O)[C@H](CC(C)C)NC(=O)[C@H](Cc1ccccc1)NC(=O)[C@H](Cc1c[nH]cn1)NC(=O)[C@H](C)NC(=O)[C@H](CC(C)C)NC(=O)[C@H](CCCNC(=N)N)NC(=O)[C@H](CCC(N)=O)NC(=O)[C@@H](NC(=O)[C@H](C)NC(=O)[C@@H]1CSSC[C@H](NC(=O)[C@H](CCCNC(=N)N)NC(=O)CC[C@H](NC(=O)CCCCCCCCCCCCCCCCCCC(=O)O)C(=O)O)C(=O)N[C@@H](CC(N)=O)C(=O)N[C@@H]([C@@H](C)O)C(=O)N[C@@H](C)C(=O)N[C@@H]([C@@H](C)O)C(=O)N1)[C@@H](C)O
B2: [19CD]-isoGlu-R-C( )-PTAT-C( )-ATERLAHFLQRSSF-Gly(Me)-A-Ile(Me)-LSSTEVGSGT-Hyp-NH2 (Compd. 72) (peptide)
peptide: {C20 diacid}-[γGlu]RCPTATCATERLAHFLQRSSF[Sar]A[NMeI]LSSTEVGSGT[Hyp]-NH2
modifications: disulfide 3-8
SMILES: CC[C@H](C)[C@@H](C(=O)N[C@@H](CC(C)C)C(=O)N[C@@H](CO)C(=O)N[C@@H](CO)C(=O)N[C@H](C(=O)N[C@@H](CCC(=O)O)C(=O)N[C@H](C(=O)NCC(=O)N[C@@H](CO)C(=O)NCC(=O)N[C@H](C(=O)N1C[C@H](O)C[C@H]1C(N)=O)[C@@H](C)O)C(C)C)[C@@H](C)O)N(C)C(=O)[C@H](C)NC(=O)CN(C)C(=O)[C@H](Cc1ccccc1)NC(=O)[C@H](CO)NC(=O)[C@H](CO)NC(=O)[C@H](CCCNC(=N)N)NC(=O)[C@H](CCC(N)=O)NC(=O)[C@H](CC(C)C)NC(=O)[C@H](Cc1ccccc1)NC(=O)[C@H](Cc1c[nH]cn1)NC(=O)[C@H](C)NC(=O)[C@H](CC(C)C)NC(=O)[C@H](CCCNC(=N)N)NC(=O)[C@H](CCC(=O)O)NC(=O)[C@@H](NC(=O)[C@H](C)NC(=O)[C@@H]1CSSC[C@H](NC(=O)[C@H](CCCNC(=N)N)NC(=O)CC[C@H](NC(=O)CCCCCCCCCCCCCCCCCCC(=O)O)C(=O)O)C(=O)N2CCC[C@H]2C(=O)N[C@@H]([C@@H](C)O)C(=O)N[C@@H](C)C(=O)N[C@@H]([C@@H](C)O)C(=O)N1)[C@@H](C)O
B3: [19CD]-isoGlu-R-C( )-NTAT-C( )-ATQRLAHFLQRSSF-Gly(Me)-A-Ile(Me)-LSSTEVGSTT-Hyp-NH2 (Compd. 73) (peptide)
peptide: {C20 diacid}-[γGlu]RCNTATCATQRLAHFLQRSSF[Sar]A[NMeI]LSSTEVGSTT[Hyp]-NH2
modifications: disulfide 3-8
SMILES: CC[C@H](C)[C@@H](C(=O)N[C@@H](CC(C)C)C(=O)N[C@@H](CO)C(=O)N[C@@H](CO)C(=O)N[C@H](C(=O)N[C@@H](CCC(=O)O)C(=O)N[C@H](C(=O)NCC(=O)N[C@@H](CO)C(=O)N[C@H](C(=O)N[C@H](C(=O)N1C[C@H](O)C[C@H]1C(N)=O)[C@@H](C)O)[C@@H](C)O)C(C)C)[C@@H](C)O)N(C)C(=O)[C@H](C)NC(=O)CN(C)C(=O)[C@H](Cc1ccccc1)NC(=O)[C@H](CO)NC(=O)[C@H](CO)NC(=O)[C@H](CCCNC(=N)N)NC(=O)[C@H](CCC(N)=O)NC(=O)[C@H](CC(C)C)NC(=O)[C@H](Cc1ccccc1)NC(=O)[C@H](Cc1c[nH]cn1)NC(=O)[C@H](C)NC(=O)[C@H](CC(C)C)NC(=O)[C@H](CCCNC(=N)N)NC(=O)[C@H](CCC(N)=O)NC(=O)[C@@H](NC(=O)[C@H](C)NC(=O)[C@@H]1CSSC[C@H](NC(=O)[C@H](CCCNC(=N)N)NC(=O)CC[C@H](NC(=O)CCCCCCCCCCCCCCCCCCC(=O)O)C(=O)O)C(=O)N[C@@H](CC(N)=O)C(=O)N[C@@H]([C@@H](C)O)C(=O)N[C@@H](C)C(=O)N[C@@H]([C@@H](C)O)C(=O)N1)[C@@H](C)O
B4: [19CD]-isoGlu-R-C( )-PTAT-C( )-ATERLAHFLQRSSF-Gly(Me)-A-Ile(Me)-LSSTEVGSTT-Hyp-NH2 (Compd. 74) (peptide)
peptide: {C20 diacid}-[γGlu]RCPTATCATERLAHFLQRSSF[Sar]A[NMeI]LSSTEVGSTT[Hyp]-NH2
modifications: disulfide 3-8
SMILES: CC[C@H](C)[C@@H](C(=O)N[C@@H](CC(C)C)C(=O)N[C@@H](CO)C(=O)N[C@@H](CO)C(=O)N[C@H](C(=O)N[C@@H](CCC(=O)O)C(=O)N[C@H](C(=O)NCC(=O)N[C@@H](CO)C(=O)N[C@H](C(=O)N[C@H](C(=O)N1C[C@H](O)C[C@H]1C(N)=O)[C@@H](C)O)[C@@H](C)O)C(C)C)[C@@H](C)O)N(C)C(=O)[C@H](C)NC(=O)CN(C)C(=O)[C@H](Cc1ccccc1)NC(=O)[C@H](CO)NC(=O)[C@H](CO)NC(=O)[C@H](CCCNC(=N)N)NC(=O)[C@H](CCC(N)=O)NC(=O)[C@H](CC(C)C)NC(=O)[C@H](Cc1ccccc1)NC(=O)[C@H](Cc1c[nH]cn1)NC(=O)[C@H](C)NC(=O)[C@H](CC(C)C)NC(=O)[C@H](CCCNC(=N)N)NC(=O)[C@H](CCC(=O)O)NC(=O)[C@@H](NC(=O)[C@H](C)NC(=O)[C@@H]1CSSC[C@H](NC(=O)[C@H](CCCNC(=N)N)NC(=O)CC[C@H](NC(=O)CCCCCCCCCCCCCCCCCCC(=O)O)C(=O)O)C(=O)N2CCC[C@H]2C(=O)N[C@@H]([C@@H](C)O)C(=O)N[C@@H](C)C(=O)N[C@@H]([C@@H](C)O)C(=O)N1)[C@@H](C)O
B5: [19CD]-isoGlu-R-C( )-NTAT-C( )-ATQRLAHFLQRSSF-Gly(Me)-A-Ile(Me)-LSSTEVGS-Aad-T-Hyp-NH2 (Compd. 75) (peptide)
peptide: {C20 diacid}-[γGlu]RCNTATCATQRLAHFLQRSSF[Sar]A[NMeI]LSSTEVGS[Aad]T[Hyp]-NH2
modifications: disulfide 3-8
SMILES: CC[C@H](C)[C@@H](C(=O)N[C@@H](CC(C)C)C(=O)N[C@@H](CO)C(=O)N[C@@H](CO)C(=O)N[C@H](C(=O)N[C@@H](CCC(=O)O)C(=O)N[C@H](C(=O)NCC(=O)N[C@@H](CO)C(=O)N[C@@H](CCCC(=O)O)C(=O)N[C@H](C(=O)N1C[C@H](O)C[C@H]1C(N)=O)[C@@H](C)O)C(C)C)[C@@H](C)O)N(C)C(=O)[C@H](C)NC(=O)CN(C)C(=O)[C@H](Cc1ccccc1)NC(=O)[C@H](CO)NC(=O)[C@H](CO)NC(=O)[C@H](CCCNC(=N)N)NC(=O)[C@H](CCC(N)=O)NC(=O)[C@H](CC(C)C)NC(=O)[C@H](Cc1ccccc1)NC(=O)[C@H](Cc1c[nH]cn1)NC(=O)[C@H](C)NC(=O)[C@H](CC(C)C)NC(=O)[C@H](CCCNC(=N)N)NC(=O)[C@H](CCC(N)=O)NC(=O)[C@@H](NC(=O)[C@H](C)NC(=O)[C@@H]1CSSC[C@H](NC(=O)[C@H](CCCNC(=N)N)NC(=O)CC[C@H](NC(=O)CCCCCCCCCCCCCCCCCCC(=O)O)C(=O)O)C(=O)N[C@@H](CC(N)=O)C(=O)N[C@@H]([C@@H](C)O)C(=O)N[C@@H](C)C(=O)N[C@@H]([C@@H](C)O)C(=O)N1)[C@@H](C)O
B6: [19CD]-isoGlu-R-C( )-PTAT-C( )-ATERLAHFLQRSSF-Gly(Me)-A-Ile(Me)-LSSTEVGS-Aad-T-Hyp-NH2 (Compd. 76) (peptide)
peptide: {C20 diacid}-[γGlu]RCPTATCATERLAHFLQRSSF[Sar]A[NMeI]LSSTEVGS[Aad]T[Hyp]-NH2
modifications: disulfide 3-8
SMILES: CC[C@H](C)[C@@H](C(=O)N[C@@H](CC(C)C)C(=O)N[C@@H](CO)C(=O)N[C@@H](CO)C(=O)N[C@H](C(=O)N[C@@H](CCC(=O)O)C(=O)N[C@H](C(=O)NCC(=O)N[C@@H](CO)C(=O)N[C@@H](CCCC(=O)O)C(=O)N[C@H](C(=O)N1C[C@H](O)C[C@H]1C(N)=O)[C@@H](C)O)C(C)C)[C@@H](C)O)N(C)C(=O)[C@H](C)NC(=O)CN(C)C(=O)[C@H](Cc1ccccc1)NC(=O)[C@H](CO)NC(=O)[C@H](CO)NC(=O)[C@H](CCCNC(=N)N)NC(=O)[C@H](CCC(N)=O)NC(=O)[C@H](CC(C)C)NC(=O)[C@H](Cc1ccccc1)NC(=O)[C@H](Cc1c[nH]cn1)NC(=O)[C@H](C)NC(=O)[C@H](CC(C)C)NC(=O)[C@H](CCCNC(=N)N)NC(=O)[C@H](CCC(=O)O)NC(=O)[C@@H](NC(=O)[C@H](C)NC(=O)[C@@H]1CSSC[C@H](NC(=O)[C@H](CCCNC(=N)N)NC(=O)CC[C@H](NC(=O)CCCCCCCCCCCCCCCCCCC(=O)O)C(=O)O)C(=O)N2CCC[C@H]2C(=O)N[C@@H]([C@@H](C)O)C(=O)N[C@@H](C)C(=O)N[C@@H]([C@@H](C)O)C(=O)N1)[C@@H](C)O
B7: [19CD]-isoGlu-R-C( )-GTAT-C( )-ATERLAHFLQRF-Gly(Me)-A-Ile(Me)-LSSTEVGSNT-Hyp-NH2 (Compd. 77) (peptide)
peptide: {C20 diacid}-[γGlu]RCGTATCATERLAHFLQRF[Sar]A[NMeI]LSSTEVGSNT[Hyp]-NH2
modifications: disulfide 3-8
SMILES: CC[C@H](C)[C@@H](C(=O)N[C@@H](CC(C)C)C(=O)N[C@@H](CO)C(=O)N[C@@H](CO)C(=O)N[C@H](C(=O)N[C@@H](CCC(=O)O)C(=O)N[C@H](C(=O)NCC(=O)N[C@@H](CO)C(=O)N[C@@H](CC(N)=O)C(=O)N[C@H](C(=O)N1C[C@H](O)C[C@H]1C(N)=O)[C@@H](C)O)C(C)C)[C@@H](C)O)N(C)C(=O)[C@H](C)NC(=O)CN(C)C(=O)[C@H](Cc1ccccc1)NC(=O)[C@H](CCCNC(=N)N)NC(=O)[C@H](CCC(N)=O)NC(=O)[C@H](CC(C)C)NC(=O)[C@H](Cc1ccccc1)NC(=O)[C@H](Cc1c[nH]cn1)NC(=O)[C@H](C)NC(=O)[C@H](CC(C)C)NC(=O)[C@H](CCCNC(=N)N)NC(=O)[C@H](CCC(=O)O)NC(=O)[C@@H](NC(=O)[C@H](C)NC(=O)[C@@H]1CSSC[C@H](NC(=O)[C@H](CCCNC(=N)N)NC(=O)CC[C@H](NC(=O)CCCCCCCCCCCCCCCCCCC(=O)O)C(=O)O)C(=O)NCC(=O)N[C@@H]([C@@H](C)O)C(=O)N[C@@H](C)C(=O)N[C@@H]([C@@H](C)O)C(=O)N1)[C@@H](C)O

Molecular target: T1, human amylin receptor 3 (hAMYR3), hCTR2 …
Assay: cell-based or functional assay

| Binder | hAMYR3 EC50 (nM); cAMP induction |
| --- | --- |
| B1 | 0.18 nM |
| B2 | 0.27 nM |
| B3 | 0.24 nM |
| B4 | 0.39 nM |
| B5 | 0.26 nM |
| B6 | 0.49 nM |
| B7 | 0.42 nM |
